Experimental data as given in patent publication US20110263454A1, “Methods of Identifying Functional Characteristics of Promoters, Transcription Modifying Proteins and Transcription Modulating Agents” (Salk Institute for Biological Studies, priority 2008, published 2011).

B1: CTF3: COUP-TF3 (NR2F6), cDNA driver (protein, UniProt P10588 1-404, looked up)
Nuclear receptor subfamily 2 …: MAMVTGGWGGPGGDTNGVDKAGGYPRAAEDDSASPPGAASDAEPGDEERPGLQVDCVVCGDKSSGKHYGVFTCEGCKSFFKRSIRRNLSYTCRSNRDCQIDQHHRNQCQYCRLKKCFRVGMRKEAVQRGRIPHSLPGAVAASSGSPPGSALAAVASGGDLFPGQPVSELIAQLLRAEPYPAAAGRFGAGGGAAGAVLGIDNVCELAARLLFSTVEWARHAPFFPELPVADQVALLRLSWSELFVLNAAQAALPLHTAPLLAAAGLHAAPMAAERAVAFMDQVRAFQEQVDKLGRLQVDSAEYGCLKAIALFTPDACGLSDPAHVESLQEKAQVALTEYVRAQYPSQPQRFGRLLLRLPALRAVPASLISQLFFMRLVGKTPIETLIRDMLLSGSTFNWPYGSGQ
B2: ERR2: Estrogen Related Receptor β (NR3B2, ERRb), cDNA driver (protein, UniProt O95718 1-433, looked up)
Steroid hormone receptor ERR2: MSSDDRHLGSSCGSFIKTEPSSPSSGIDALSHHSPSGSSDASGGFGLALGTHANGLDSPPMFAGAGLGGTPCRKSYEDCASGIMEDSAIKCEYMLNAIPKRLCLVCGDIASGYHYGVASCEACKAFFKRTIQGNIEYSCPATNECEITKRRRKSCQACRFMKCLKVGMLKEGVRLDRVRGGRQKYKRRLDSESSPYLSLQISPPAKKPLTKIVSYLLVAEPDKLYAMPPPGMPEGDIKALTTLCDLADRELVVIIGWAKHIPGFSSLSLGDQMSLLQSAWMEILILGIVYRSLPYDDKLVYAEDYIMDEEHSRLAGLLELYRAILQLVRRYKKLKVEKEEFVTLKALALANSDSMYIEDLEAVQKLQDLLHEALQDYELSQRHEEPWRTGKLLLTLPLLRQTAAKAVQHFYSVKLQGKVPMHKLFLEMLEAKV
B3: ERR3: Estrogen Related Receptor γ (NR3B3, ERRg), cDNA driver (protein, UniProt P62508 1-458, looked up)
Estrogen-related receptor …: MDSVELCLPESFSLHYEEELLCRMSNKDRHIDSSCSSFIKTEPSSPASLTDSVNHHSPGGSSDASGSYSSTMNGHQNGLDSPPLYPSAPILGGSGPVRKLYDDCSSTIVEDPQTKCEYMLNSMPKRLCLVCGDIASGYHYGVASCEACKAFFKRTIQGNIEYSCPATNECEITKRRRKSCQACRFMKCLKVGMLKEGVRLDRVRGGRQKYKRRIDAENSPYLNPQLVQPAKKPYNKIVSHLLVAEPEKIYAMPDPTVPDSDIKALTTLCDLADRELVVIIGWAKHIPGFSTLSLADQMSLLQSAWMEILILGVVYRSLSFEDELVYADDYIMDEDQSKLAGLLDLNNAILQLVKKYKSMKLEKEEFVTLKAIALANSDSMHIEDVEAVQKLQDVLHEALQDYEAGQHMEDPRRAGKMLMTLPLLRQTSTKAVQHFYNIKLEGKVPMHKLFLEMLEAKV
B4: CTF2: COUP-TF2 (NR2F2), cDNA driver (protein, UniProt P24468 1-414, looked up)
COUP transcription factor 2: MAMVVSTWRDPQDEVPGSQGSQASQAPPVPGPPPGAPHTPQTPGQGGPASTPAQTAAGGQGGPGGPGSDKQQQQQHIECVVCGDKSSGKHYGQFTCEGCKSFFKRSVRRNLSYTCRANRNCPIDQHHRNQCQYCRLKKCLKVGMRREAVQRGRMPPTQPTHGQFALTNGDPLNCHSYLSGYISLLLRAEPYPTSRFGSQCMQPNNIMGIENICELAARMLFSAVEWARNIPFFPDLQITDQVALLRLTWSELFVLNAAQCSMPLHVAPLLAAAGLHASPMSADRVVAFMDHIRIFQEQVEKLKALHVDSAEYSCLKAIVLFTSDACGLSDVAHVESLQEKSQCALEEYVRSQYPNQPTRFGKLLLRLPSLRTVSSSVIEQLFFVRLVGKTPIETLIRDMLLSGSSFNWPYMAIQ
B5: CTF1: COUP-TF1 (NR2F1), cDNA driver (protein, UniProt P10589 1-423, looked up)
COUP transcription factor 1: MAMVVSSWRDPQDDVAGGNPGGPNPAAQAARGGGGGAGEQQQQAGSGAPHTPQTPGQPGAPATPGTAGDKGQGPPGSGQSQQHIECVVCGDKSSGKHYGQFTCEGCKSFFKRSVRRNLTYTCRANRNCPIDQHHRNQCQYCRLKKCLKVGMRREAVQRGRMPPTQPNPGQYALTNGDPLNGHCYLSGYISLLLRAEPYPTSRYGSQCMQPNNIMGIENICELAARLLFSAVEWARNIPFFPDLQITDQVSLLRLTWSELFVLNAAQCSMPLHVAPLLAAAGLHASPMSADRVVAFMDHIRIFQEQVEKLKALHVDSAEYSCLKAIVLFTSDACGLSDAAHIESLQEKSQCALEEYVRSQYPNQPSRFGKLLLRLPSLRTVSSSVIEQLFFVRLVGKTPIETLIRDMLLSGSSFNWPYMSIQCS

Key:
[1] = test system: hCAR promoter; experiment: NHR-promoter luciferase screen, hCAR promoter; assay type: cell-based, human; conditions: for luciferase activity normalized to lacZ activity and to a control, hCAR: hCAR promoter-luciferase, CV-1 cells, NHR +/- ligand, control = 1.00; for Luc. act., normalized to lacZ / Normalized Luc. act., normalized to control: hCAR promoter, HR/ligand component
Outline: (§1)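 CV-1 cells were co-transfected with 50 ng NHR (homodimer or NHR/RXR heterodimer), 100 ng promoter-luciferase construct and 50 ng LacZ. Luciferase was normalized to LacZ and to a no-NHR/no-ligand control.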

[2] = test system: hMyoD promoter; experiment: NHR-promoter luciferase screen, hMyoD promoter; assay type: cell-based, human; conditions: for Luc. act., normalized to lacZ / Normalized Luc. act., normalized to control: MyoD promoter reporter, co-transfected HR, without or with its ligand; for Normalized Luc. act., normalized to control: relative to control; for luciferase activity normalized to lacZ activity and to a control, hMyoD: hMyoD promoter-luciferase, CV-1 cells, NHR +/- ligand, control = 1.00
Outline: as §1

[3] = test system: mNPY promoter; experiment: NHR-promoter luciferase screen, mNPY promoter; assay type: cell-based, mouse; conditions: for Results of assays of transcription factor (+/- ligand) with mNPY: Table 6d, luciferase activity relative to control (control = 1.00); for Luc. act., normalized to lacZ / Normalized Luc. act., normalized to control: mNPY promoter, HR component with or without ligand; for Normalized Luc. act., normalized to control: relative to control
Outline: as §1

[4] = test system: mUCP3 promoter; experiment: NHR-promoter luciferase screen, mUCP3 promoter; assay type: cell-based, mouse; conditions: for Normalized Luc. act., normalized to control / Luc. act., normalized to lacZ: mUCP3 promoter reporter; for Normalized Luc. act., normalized to control: HR without or with its ligand, relative to control; for Luc. act., normalized to lacZ: hormone receptor (HR) without or with its ligand; for mUCP3 promoter reporter activity: transcription factor +/- ligand, control = 1.00
Outline: as §1

[5] = test system: mDio2 promoter; experiment: NHR-promoter luciferase screen, mDio2 promoter; assay type: cell-based, mouse; conditions: for Luc. act., normalized to lacZ / Normalized Luc. act., normalized to control: Dio2, HR component without or with its ligand; for mDio2 promoter reporter activity: transcription factor +/- ligand, control = 1.00
Outline: as §1

[6] = test system: mABCA1 promoter; experiment: NHR-promoter luciferase screen, mABCA1 promoter; assay type: cell-based, mouse; conditions: for Luc. act., normalized to lacZ / Normalized Luc. act., normalized to control: ABCA1 promoter, hormone receptor with or without its ligand; for Normalized Luc. act., normalized to control: relative to control; for mABCA1 promoter reporter activity: transcription factor +/- ligand, control = 1.00
Outline: as §1

Row | Molecule | luciferase activity normalized to lacZ activity and to a control, hCAR [1] | Luc. act., normalized to lacZ [1] | Normalized Luc. act., normalized to control [1] | Luc. act., normalized to lacZ [2] | Normalized Luc. act., normalized to control [2] | luciferase activity normalized to lacZ activity and to a control, hMyoD [2] | Results of assays of transcription factor (+/- ligand) with mNPY [3] | Luc. act., normalized to lacZ [3] | Normalized Luc. act., normalized to control [3] | Normalized Luc. act., normalized to control [4] | Luc. act., normalized to lacZ [4] | mUCP3 promoter reporter activity [4] | Luc. act., normalized to lacZ [5] | Normalized Luc. act., normalized to control [5] | mDio2 promoter reporter activity [5] | Luc. act., normalized to lacZ [6] | Normalized Luc. act., normalized to control [6] | mABCA1 promoter reporter activity [6]
1 | B1 | 0.14 | 4.5 | 0.1 | 35.6 | 0.6 | 0.56 | 0.48 | 40.6 | 0.5 | 0.8 | 0.6 | 0.82 | 15.3 | 1.0 | 0.97 | 5.6 | 1.0 | 1.01
2 | B2 | 0.77 | 24.2 | 0.8 | 164.8 | 2.6 | 2.60 | 1.02 | 85.4 | 1.0 | 3.3 | 2.2 | 3.32 | 39.5 | 2.5 | 2.52 | 33.0 | 5.9 | 5.88
3 | B3 | 1.34 | 42.2 | 1.3 | 129.6 | 2.0 | 2.05 | 1.11 | 93.1 | 1.1 | 3.1 | 2.1 | 3.06 | 85.6 | 5.4 | 5.45 | 11.4 | 2.0 | 2.04
4 | B4 | 0.23 | 7.2 | 0.2 | 60.9 | 1.0 | 0.96 | 0.65 | 54.7 | 0.7 | 0.9 | 0.6 | 0.91 | 18.8 | 1.2 | 1.20 | 4.7 | 0.8 | 0.84
5 | B5 | 0.14 | 4.5 | 0.1 | 44.8 | 0.7 | 0.71 | 0.47 | 39.2 | 0.5 | 0.9 | 0.6 | 0.93 | 15.7 | 1.0 | 1.00 | 5.5 | 1.0 | 0.99
